What was measured:
[1] = target: heat-aggregated E. coli proteins; experiment: biolayer interferometry (BLI); conditions: value read at the end of the association phase (~60 min), read off a plot
[2] = target: the molecule itself; experiment: dynamic light scattering; 10 µM sHsp in buffer F (50 mM Tris pH 7.5, 150 mM KCl, 20 mM MgCl2, 2.5 mM DTT); oligomer size measured at 25 °C and 44 °C in repeated cycles
[3] = target: T1, His-tagged luciferase, heat-aggregated on the BLI sensor (firefly, UniProt P08659 1-550 = luciferase); experiment: BLI; ForteBio BLItz; His-tagged luciferase aggregated on the sensor; 5 µM sHsp (preincubated 10 min at 44 °C) bound for 10 min, then buffer F or Hsp70 system (0.7 µM DnaK, 0.28 µM DnaJ, 0.21 µM GrpE, 5 mM ATP) for 1 hr; room temperature; conditions: both partners purified
T1 construct: firefly luciferase, His-tagged construct of Obuchowski et al., 2019; anchoring layer attached to NTA sensors in 4.5 M urea, then aggregate formed at 44 °C; also called aggregated luciferase; luciferase aggregates; source: purified as described previously (Obuchowski et al., 2019)
T1 sequence (P08659 whole entry): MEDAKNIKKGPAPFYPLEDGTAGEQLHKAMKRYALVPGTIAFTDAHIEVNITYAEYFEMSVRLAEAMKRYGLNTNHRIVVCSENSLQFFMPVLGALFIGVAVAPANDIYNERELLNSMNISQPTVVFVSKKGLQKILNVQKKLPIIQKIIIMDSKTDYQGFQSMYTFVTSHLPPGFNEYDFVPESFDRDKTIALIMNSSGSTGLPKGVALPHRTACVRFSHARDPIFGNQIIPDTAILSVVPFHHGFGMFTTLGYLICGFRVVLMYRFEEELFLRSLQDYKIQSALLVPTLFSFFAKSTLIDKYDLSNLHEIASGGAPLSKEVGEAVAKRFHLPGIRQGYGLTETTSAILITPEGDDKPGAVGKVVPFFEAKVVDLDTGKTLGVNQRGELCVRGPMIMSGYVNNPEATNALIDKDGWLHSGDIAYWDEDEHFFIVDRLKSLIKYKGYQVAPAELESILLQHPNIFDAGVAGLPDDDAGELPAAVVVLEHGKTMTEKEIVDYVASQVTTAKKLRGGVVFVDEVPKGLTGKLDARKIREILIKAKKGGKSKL

Question: Which response ([1]; parent: est. 2.7) does the source give for “IbpA from Escherichia coli (from UniProt P0C054) Q66H; G109D” here?
Answer: 1.5 nm

Question: Which response ([1]; parent: est. 0.91) does the source give for “IbpA from Erwinia amylovora (from UniProt A0ABX7MII2) H67Q; D110G” here?
Answer: 1.4 nm

B1: IbpA_(E.coli) Q66H G109D (natural protein, E. coli, UniProt P0C054 1-137, looked up)
chain: MRNFDLSPLYRSAIGFDRLFNHLENNQSQSNGGYPPYNVELVDENHYRIAIAVAGFAESELEITAHDNLLVVKGAHADEQKERTYLYQGIAERNFERKFQLAENIHVRDANLVNGLLYIDLERVIPEAKKPRRIEIN
notes: IbpA, small heat shock protein of E. coli, with AncA1-like substitutions; source: purified
Question: Does B1 bind [2]?
Answer: binds

Question: Does B1 bind [3]?
Answer: binds

B2: IbpA from Escherichia coli (natural protein, E. coli, UniProt P0C054 1-137, looked up)
chain: MRNFDLSPLYRSAIGFDRLFNHLENNQSQSNGGYPPYNVELVDENHYRIAIAVAGFAESELEITAQDNLLVVKGAHADEQKERTYLYQGIAERNFERKFQLAENIHVRGANLVNGLLYIDLERVIPEAKKPRRIEIN
notes: IbpA, small heat shock protein of E. coli; also called IbpA_(E. coli); IbpAEc; source: purified as described previously (Ratajczak et al., 2009)
Question: Does B2 bind [3]?
Answer: binds

Source: article PMC10708888, “Evolution towards simplicity in bacterial small heat shock protein system” (eLife, 2023)
